Results from publication PMC11402289, “Structural basis for RNA recognition by the C-terminal RRM domain of human RBM45”.

T1: RBM45 RRM3 (Homo sapiens, UniProt Q8IUH3 370-476)
T1 sequence: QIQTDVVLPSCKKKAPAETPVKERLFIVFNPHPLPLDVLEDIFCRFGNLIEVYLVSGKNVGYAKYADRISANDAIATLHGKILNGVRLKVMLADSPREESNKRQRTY


Target: T1, RBM45 RRM3
Experiment: fluorescence polarization; FP: 100 nM FAM-RNA/ssDNA, 10 mM Tris-HCl pH 7.5, 200 mM NaCl, 1 mM DTT, 1 mM EDTA, 5% glycerol, 25 °C, 30 min
Details: protein: recombinant; tags: C-terminal His-tag; label: 5'-FAM

Binder	Kd [µM]
AGACGG (ssRNA)	3.11 ± 0.48
GGUCGG (ssRNA)	71.6 ± 16.9
UGACGG (ssRNA)	2.13 ± 0.37
GGACGA (ssRNA)	1.16 ± 0.27
GAACGG (ssRNA)	10.2 ± 1.97
GGACGG (ssDNA) [GGACGG ssDNA]	8.77 ± 0.61
GGCCGG (ssRNA)	71 ± 16.1
GCACGG (ssRNA)	8.88 ± 2.32
GGAUGG (ssRNA)	63.6 ± 12.1
UUUUUU (ssRNA) [polyU 6-mer RNA]	199 ± 114
GGACAG (ssRNA)	28.1 ± 6.62
GGACGG (ssRNA, m6A at position 3) [GG(m6A)CGG RNA]	4.62 ± 0.55
GGGCGG (ssRNA)	59.3 ± 21.2
GGACUG (ssRNA)	15.3 ± 2.1
GGACGC (ssRNA)	1.08 ± 0.21
GGAGGG (ssRNA)	61.5 ± 45.7
GUACGG (ssRNA)	9.31 ± 1.93
GGAAGG (ssRNA)	91.6 ± 17.6
GGACGU (ssRNA)	1.21 ± 0.26
GGACGG (ssRNA) [GGACGG RNA]	2.34 ± 0.38
CGACGG (ssRNA)	1.99 ± 0.35

Target: T1, RBM45 RRM3
Experiment: fluorescence polarization; also printed as 33.6; FP: 100 nM FAM-RNA/ssDNA, 10 mM Tris-HCl pH 7.5, 200 mM NaCl, 1 mM DTT, 1 mM EDTA, 5% glycerol, 25 °C, 30 min
Details: protein: recombinant; tags: C-terminal His-tag; label: 5'-FAM

Binder	Kd [µM]
GGACCG (ssRNA)	32.6 ± 6.22

Target: T1, RBM45 RRM3
Experiment: fluorescence polarization; m6A comparison experiment; FP: 100 nM FAM-RNA/ssDNA, 10 mM Tris-HCl pH 7.5, 200 mM NaCl, 1 mM DTT, 1 mM EDTA, 5% glycerol, 25 °C, 30 min
Details: protein: recombinant; tags: C-terminal His-tag; label: 5'-FAM

Binder	Kd [µM]
GGACGG (ssRNA) [GGACGG RNA]	3.17 ± 0.3

Target: T1, RBM45 RRM3
Experiment: X-ray crystallography; 1.65 A; 0.1 M sodium succinate pH 5.3, 8% PEG 2000; FP: 100 nM FAM-RNA/ssDNA, 10 mM Tris-HCl pH 7.5, 200 mM NaCl, 1 mM DTT, 1 mM EDTA, 5% glycerol, 25 °C, 30 min
Details: protein: recombinant; tags: C-terminal His-tag

Binder	binding result
GACGCAG (ssDNA) [GACGCAG ssDNA]	binds
